Experimental findings from article PMC10855554 are described below.

The target in one assay is TbTim10-Myc (T. brucei). As to the kind of experiment: co-IP; anti-Myc agarose beads, 1% digitonin-solubilised mitochondrial extract of double-tagged T. brucei cells (day 2 of induction), 50 mM Tris pH 7.2, 50 mM NaCl, 10% glycerol, 12 h at 4 °C; immunoblot, bound fraction as percent of input. A general note: In western blotting, separated proteins are transferred to a membrane and probed.

Another assay has as its target TbTim9-HA (T. brucei). Nature of the assay: co-IP; anti-HA agarose beads, 1% digitonin-solubilised mitochondrial extract of double-tagged T. brucei cells (day 2 of induction), 50 mM Tris pH 7.2, 50 mM NaCl, 10% glycerol, 12 h at 4 °C; immunoblot, bound fraction as percent of input.
Another assay deals with TbTim12-HA (T. brucei). The description is as above.
Another assay has as its target TbTim8/13-HA (T. brucei). The description is as above.
The target of the next assay is TbTim13-HA (T. brucei). The assay is described as above.
Another assay has as its target TbTim10-HA (T. brucei). The assay is described as above.

Consider TbTim12-HA (natural protein), for which the percent of input co-precipitated (% of the input) in the assay with TbTim10-Myc (T. brucei) turned out to be 30.

For TbTim10-Myc (natural protein), the percent of input co-precipitated (% of the input) in the assay with TbTim9-HA (T. brucei) and with TbTim8/13-HA (T. brucei) was 45 throughout. In addition, the percent of input co-precipitated with TbTim12-HA (T. brucei), with TbTim13-HA (T. brucei) and with TbTim10-HA (T. brucei) was under 10% throughout.

With TbTim8/13-HA (natural protein), the percent of input co-precipitated (% of the input) in the assay with TbTim10-Myc (T. brucei) was determined as 45.

In the case of TbTim10-HA (natural protein), the percent of input co-precipitated (% of the input) with TbTim10-Myc (T. brucei) worked out at 25.

In turn, TbTim9-HA (natural protein) yielded a percent of input co-precipitated (% of the input) with TbTim10-Myc (T. brucei) of 35.
